Assay results published in patent US20040038861A1, “Methods and compositions for normalizing lipid levels in mammalian tissues” (priority 2001, published 2004).

Tests used:
[1] = molecular target: high affinity CGRP receptor
[2] = molecular target: metabolic amylin receptor
[3] = molecular target: high affinity CGRP receptor; remark: listed apart in the source
[4] = molecular target: high affinity CGRP receptor; remark: listed apart in the source
[5] = molecular target: metabolic amylin receptor; remark: listed apart in the source
[6] = molecular target: metabolic amylin receptor; remark: listed apart in the source
ramp 1/C1ins− receptor = molecular target: T1, ramp 1/C1ins− receptor (Mus musculus, UniProt Q60755+Q9WTJ5); assay: cAMP production in L6 myoblasts co-transfected with ramp 1 and C1ins−; assay type: cell-based, murine; details: 5 μM antagonist; agonist 10 pM to 100 nM
T1 construct: expressed in transfected cells; host or cells: L6 myoblasts (ATCC), transient co-transfection of pcDNA3.1 plasmids
T1 sequence (Q60755 42-496 isoform Q60755-2 limits assumed): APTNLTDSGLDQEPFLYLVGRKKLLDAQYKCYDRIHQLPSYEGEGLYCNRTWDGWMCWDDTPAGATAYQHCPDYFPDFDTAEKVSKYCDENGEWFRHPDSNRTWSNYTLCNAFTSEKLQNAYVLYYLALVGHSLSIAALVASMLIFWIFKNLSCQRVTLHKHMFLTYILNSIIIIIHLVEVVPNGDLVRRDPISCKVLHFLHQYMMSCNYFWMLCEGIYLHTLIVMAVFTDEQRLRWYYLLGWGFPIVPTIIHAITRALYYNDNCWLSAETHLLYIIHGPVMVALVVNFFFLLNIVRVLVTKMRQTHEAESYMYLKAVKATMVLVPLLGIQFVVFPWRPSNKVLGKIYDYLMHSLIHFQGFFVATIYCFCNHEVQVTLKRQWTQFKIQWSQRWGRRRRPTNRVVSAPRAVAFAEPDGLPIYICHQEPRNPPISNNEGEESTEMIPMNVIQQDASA
T1 sequence (Q9WTJ5 27-148 partner): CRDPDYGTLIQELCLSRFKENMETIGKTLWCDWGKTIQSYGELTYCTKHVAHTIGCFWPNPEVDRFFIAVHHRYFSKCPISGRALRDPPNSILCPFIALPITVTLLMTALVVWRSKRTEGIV
Procedure: Transfection of L6 myoblasts and cos-7 cells, and analysis of radioligand binding. L6 myoblasts and cos-7 cells were obtained from ATCC. Both cell lines were cultered in Dulbecco's modified Eagle's medium (DMEM; Gibco/BRL, high glucose) supplemented with 10% fetal calf serum (Gibco/BRL, Gaithersburg, Md.), L-glutamine (2 mM), penicillin (100 U/ml; Sigma), streptomycin ([…]; Sigma), saline (0.85%), under 5% CO2/95% air at 37° C. The day before transfection, cells were trypsinised and seeded into six-well plates at a density of 2.9×10^5 cells/well in the same medium. For transfection, cells were incubated with a mixture comprising 1 μg each of Qiagen-purified (Qiagen, Valencia, Calif.) plasmids containing C1ins− with either ramp 1 or ramp 3, and Fugene reagent (6 μl; Boehringer Mannheim) in Opti-Mem I medium (Gibco/BRL). The complex was added with serum to cells, which were incubated for a further 48 h.
Determination of cAMP in cultured cells and soleus muscle strips. cAMP concentration was measured in cells seeded in six-well plates and transfected as described. Following aspiration, cells were incubated for 15 min at room temperature in the presence of stated concentrations of ligands in binding buffer. Isobutylmethylxanthine (Sigma) was added to a final concentration of 0.5 mM together with stated concentrations of peptides, and the reaction terminated by aspiration. Cells were washed with 0.5 ml ice-cold TE buffer (10 mM Tris/HCl, 1 mM EDTA, pH 7.6) and rapidly transferred to eppendorf tubes in 1 ml of the same buffer, then boiled for 5 min. Following centrifugation at 12,000 g for 5 min at 4° C., then cooling on ice, duplicate 50 μl aliquots were analyzed for cAMP using an assay system based on competitive binding (Arnersham Pharmacia) according to the manufacturer's instructions.

soleus muscle [7] = assay: Lipid metabolites (free fatty acid, glycerol, triglyceride; enzymatic analysis) in isolated soleus muscle from normally fed rats; assay type: cell-based, rat; details: 1 h
soleus muscle [8] = assay: Glucose transport (2-deoxy-D-glucose uptake) in incubated soleus muscle strips; assay type: cell-based, rat; details: antagonist 1 μM and 10 μM; without antagonist 19.5±3.6
Procedure: (§1) Soleus muscle preparation. All experiments were performed according to protocols approved by the Institutional Animal Ethics Committee. 5-6 week-old male Wistar rats (160 g) were kept on a 12:12-h light/dark cycle, and fed and watered ad libitum. Animals were anaesthetised with 50 mg/kg Nembutal (pentobarbitone sodium), then sacrificed by cervical dislocation. Soleus muscles were dissected under oxygenated KHB (118 mM NaCl, 4.75 mM KCl, 1.2 mM MgSO4, 24.8 mM NaHCO3, 1.2 mM KH2PO4, 2.54 mM CaCl2, 10 mM glucose, pH 7.4) and teased into halves, then incubated as described below.
Determination of rates of glucose transport in incubated soleus muscle strips. 4-5 muscle strips were added to each flask, which contained 10 ml DMEM. They were pre-incubated with hormones as indicated for 30 min at 30° C. in a shaking water bath, after which 5 μl of 2[^3H]DOG (0.5 μCi/ml) and 5 μl D[^14C(U)]sorbitol (0.05 μCi/ml) were added, then incubated for another 30 min; RIA grade BSA was added to 0.9% (w/v) to prevent non-specific binding of insulin to flasks. Following incubation, muscle strips were transferred to ice-cold KHB for 5-10 min to remove excess [^3H]DOG and [^14C]sorbitol. They were then blotted, frozen, tendons excised, then lyophilized for a further 48 h. Muscles were then weighed, transferred to scintillation vials and digested with 0.5 ml 1 M NaOH at 60° C. for 1 h. Scintillation fluid (4 ml) was added to each vial, and samples counted in a Beckman liquid scintillation spectrometer, preset to count ^14C and ^3H channels simultaneously. The amount of each isotope present in the samples was determined and used to calculate the extracellular space and the intracellular concentration of [^3H]DOG. The accumulation of intracellular [^3H]DOG, a measure of muscle glucose uptake, was calculated by subtracting the concentration of [^3H]DOG in the extracellular space from the corresponding total muscle [^3H]DOG]; extracellular [^3H]DOG was quantified by measuring the muscle concentration of [^14C]sorbitol.
(§2) Data analysis. One way ANOVA, Dunnett's Multiple Comparisons Test, and unpaired Student's t-tests were used to calculate the statistical significance of differences, as appropriate. Dose-response curves were fitted to a sigmoidal dose-response algorithm, as follows: Y=minimum+(maximum−minimum)/([…] log ^(EC50^−X), for 2-DOG-uptake; and by a four parameter logistic model, Y=minimum+(maximum−minimum)/(1+10 log ^(EC50^−X)Hill-Coefficient) for total glycogen and [^14C]glucose incorporation. Calculations were performed using Prism v2.0 (GraphPad Software, San Diego, Calif.) to derive values for half-maximal effective concentration (EC50). Displacement curves derived for competition of bound radioligand with cold ligand in transfected cells were calculated according to a one site competition fit using Prism v2.0.

soleus muscle [9] = assay: cAMP content of isolated soleus muscle from high fat-fed rats; assay type: cell-based, rat
Procedure: as §1
(§3) For the measurement of cAMP in muscle, isolated soleus strips were incubated with stated concentrations of peptides, then lyophilized and deproteinized. Each strip was placed in 400 μl of 0.5 M HClO4 with 5 mM EDTA (phosphodiesterase inhibitor) and sonicated three times in 20 s bursts. Tubes were heated for 3-5 min in boiling water to coagulate protein, then centrifuged (12,000 g, 4° C., 2 min). Supernatant (300 μl) was taken and the pH adjusted to 7.0 with 75 μl of 2 M NH4OH. The samples were refrigerated (4° C., 2 h) to precipitate proteins, then centrifuged under the same conditions as above and 50 μl taken for cAMP measurement.

soleus muscle [10] = assay: cAMP content of isolated soleus muscle from normal fed rats; assay type: cell-based, rat; details: normal fed; 10-fold molar excess of antagonist; CGRP alone 6.9±0.8
Procedure: as §1, §3

soleus muscle [11] = assay: Incorporation of D[14C(U)]glucose into glycogen in isolated incubated soleus muscle; assay type: cell-based, rat; details: isolated rat soleus muscle
Procedure: as §1
Measurement of glycogen metabolism in isolated, incubated soleus muscle. […]. Glycogen was precipitated overnight at −20° C. with 96% ethanol (1.2 ml), followed by centrifugation at 8,000 g (15 min, 4° C.). Pellets were washed twice with the same amount of ethanol then dissolved in water (0.6 ml). Aliquots (0.3 ml) were analyzed for D[^14C(U)] glucose content by liquid scintillation spectrometry.
as §2

soleus muscle [12] = assay: Total glycogen content in isolated incubated soleus muscle; assay type: cell-based, rat; details: isolated rat soleus muscle
Procedure: as §1
Total glycogen content was measured in muscle strips by lyophilization followed by hydrolysis of glycogen to D-glucose with amyloglucosidase (Sigma) 20 U/100 ml in 0.2 M sodium acetate/acetic acid buffer, pH 4.8, and expressed as μmol ‘glucosyl’ units/g dry muscle weight. Free glucose in supernatant solutions was measured with a glucose/lactate analyzer (YSI 2300STAT, Yellow Springs Corporation) using D-glucose oxidase immobilized enzyme chemistry.
as §2

[13] = molecular target: T2, murine ramp 1/C1ins− receptor (Mus musculus, UniProt Q60755+Q9WTJ5); assay: Radioligand binding and displacement of [3H]amylin in L6 myoblasts co-transfected with murine ramp 1 and C1ins−; details: 10 nM radioligand, FIG. 8D
T2 construct: expressed in transfected cells; host or cells: L6 myoblasts (ATCC), transient co-transfection of pcDNA3.1 plasmids
T2 sequence (Q60755 42-496 isoform Q60755-2 limits assumed): T1 sequence (Q60755 42-496 isoform Q60755-2 limits assumed)
T2 sequence (Q9WTJ5 27-148 partner): T1 sequence (Q9WTJ5 27-148 partner)
Procedure: Transfection of L6 myoblasts and cos-7 cells, and analysis of radioligand binding. L6 myoblasts and cos-7 cells were obtained from ATCC. Both cell lines were cultered in Dulbecco's modified Eagle's medium (DMEM; Gibco/BRL, high glucose) supplemented with 10% fetal calf serum (Gibco/BRL, Gaithersburg, Md.), L-glutamine (2 mM), penicillin (100 U/ml; Sigma), streptomycin (100 mg/ml; Sigma), saline (0.85%), under 5% CO2/95% air at 37° C. The day before transfection, cells were trypsinised and seeded into six-well plates at a density of 2.9×10^5 cells/well in the same medium. For transfection, cells were incubated with a mixture comprising 1 μg each of Qiagen-purified (Qiagen, Valencia, Calif.) plasmids containing C1ins− with either ramp 1 or ramp 3, and Fugene reagent (6 μl; Boehringer Mannheim) in Opti-Mem I medium (Gibco/BRL). The complex was added with serum to cells, which were incubated for a further 48 h.
For binding experiments, radioligand (either alone or together with stated final concentrations of non-radiolabeled ligands) was dissolved in DMEM containing 0.1% BSA (binding buffer) for 1 h before binding experiments were performed. […] Cells were washed twice with this buffer, then incubated with 1 ml of the same plus radioligand for 4 h at room temperature (21° C.).

[14] = molecular target: T3, murine ramp 1/C1ins- receptor (murine, UniProt Q60755); assay: displacement of 20 nM [^3H]amylin, L6 myoblasts co-transfected with murine ramp 1 and C1ins-
T3 sequence 1: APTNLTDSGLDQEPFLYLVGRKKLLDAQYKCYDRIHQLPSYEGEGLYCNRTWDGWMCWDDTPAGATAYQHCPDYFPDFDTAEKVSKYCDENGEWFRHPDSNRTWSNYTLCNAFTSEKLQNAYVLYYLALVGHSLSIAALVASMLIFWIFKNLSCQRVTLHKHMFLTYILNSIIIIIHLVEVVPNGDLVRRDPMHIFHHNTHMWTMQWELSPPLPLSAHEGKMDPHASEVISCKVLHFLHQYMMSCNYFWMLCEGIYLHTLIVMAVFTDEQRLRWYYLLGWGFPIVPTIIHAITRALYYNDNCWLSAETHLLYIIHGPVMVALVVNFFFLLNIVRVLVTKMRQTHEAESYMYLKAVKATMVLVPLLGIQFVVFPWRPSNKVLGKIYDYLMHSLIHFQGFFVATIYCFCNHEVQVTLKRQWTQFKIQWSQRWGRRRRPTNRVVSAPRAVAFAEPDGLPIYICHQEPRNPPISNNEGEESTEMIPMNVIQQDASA
T3 sequence 2: T1 sequence (Q9WTJ5 27-148 partner)
From the text: (§4) Cells were then washed and bound radioactivity determined by liquid scintillation counting. […] Each point represents the mean±SEM of three independent myoblast transfections from an experiment repeated at least twice.

[15] = molecular target: T3, murine ramp 1/C1ins- receptor; assay: displacement of 20 nM [^3H]amylin, co-transfected L6 myoblasts; Cheng and Prusoff with Kd […]
From the text: as §4
95% confidence intervals (nM) are bracketed.

[16] = molecular target: T3, murine ramp 1/C1ins- receptor; assay: displacement of 20 nM [^3H]amylin, co-transfected L6 myoblasts
From the text: as §4

**Q.** Which lipolysis in skeletal muscle, EC50 as summed up in the description [1] does the source give for rat CGRP-1 (ligand) here?
**A.** 0.00026 nM

**Q.** And the free fatty acid content in incubated rat soleus muscle, EC50 of the second phase [2]?
**A.** 45 nM

**Q.** What about the free fatty acid content in incubated rat soleus muscle, EC50 of the first phase [3] of the same molecule?
**A.** 0.00025 nM

**Q.** What about the NEFA content of soleus muscle from high fat-fed rats, EC50 [4] of the same molecule?
**A.** 0.0007 nM

**Q.** What about the decrease in intramuscular triglyceride of soleus muscle from high fat-fed rats, EC50 [4] of the same molecule?
**A.** 0.00025 nM

**Q.** What about the EC50, ^14C-glucose incorporation into glycogen, with insulin (23.7 nM) [5] of the same molecule?
**A.** 0.7 nM

**Q.** What about the EC50, ^14C-glucose incorporation into glycogen, without insulin [5] of the same molecule?
**A.** 3.1 nM

**Q.** And the EC50, total glycogen content, without insulin [5]?
**A.** 3.2 nM

**Q.** What does the source list for “rat amylin (from UniProt P12969) (ligand)”?
**A.** free fatty acid content in incubated rat soleus muscle, EC50 [6]: 7.8 nM; EC50, total glycogen content, without insulin [5]: 8 nM

**Q.** For rat amylin-(8-37), which “antagonism of peptide-evoked cAMP production” value (ramp 1/C1ins− receptor) is on record?
**A.** only a modest decrease in cAMP production

**Q.** And the “free fatty acid concentration in conjunction with 1 pM CGRP” value (soleus muscle [7]; 100 pM antagonist + 1 pM CGRP, CGRP alone 166±18)?
**A.** 86±20 nmol/g

**Q.** What about the “free fatty acid content in conjunction with 100 nM CGRP” value (soleus muscle [7]; 10 μM antagonist or maximally stimulating insulin (23.7 nM) + 100 nM CGRP, CGRP alone 334±52) of the same molecule?
**A.** 34 ± 5 nmol/g

**Q.** And the “free fatty acid content in conjunction with 100 nM amylin” value (soleus muscle [7]; 10 μM antagonist or maximally stimulating insulin (23.7 nM) + 100 nM amylin, amylin alone 216±26)?
**A.** 18.5 ± 6 nmol/g

**Q.** What about the “glucose uptake in presence of amylin (10 nM) and insulin (23.7 nM) plus antagonist” value (soleus muscle [8]) of the same molecule?
**A.** no significant effect

**Q.** And the “cAMP content with 100 nM CGRP1 plus antagonist” value (soleus muscle [9]; 10-fold molar excess of antagonist)?
**A.** 4.3 ± 0.8 pmol/mg

**Q.** What about the “cAMP content with 1 pM CGRP plus antagonist” value (soleus muscle [9]; 10-molar excess of antagonist, CGRP alone 8.6±0.4) of the same molecule?
**A.** 4.4±0.4 pmol/mg

**Q.** What about the “cAMP content with 100 nM CGRP plus antagonist” value (soleus muscle [10]) of the same molecule?
**A.** 2.9 ± 0.8 pmol/mg

**Q.** Which results are given for salmon calcitonin?
**A.** EC50 (soleus muscle [11]; absence of insulin): 0.1 nM; EC50 (soleus muscle [11]; human insulin 23.7 nM): 0.9 nM; EC50 (soleus muscle [12]; absence of insulin): 1.7 nM; EC50 (soleus muscle [12]; human insulin 23.7 nM): 0.6 nM; specific binding of [3H]radioligand to L6 myoblasts co-transfected with ramp 1 and C1ins− [13]: significant increases in specific binding

**Q.** For VTHRLAGLLSRSGGVVKDNFVPTNVGSEAF [^8,37rat CGRP-1], which IC50 [14] is on record?
**A.** 62 nM

**Q.** And the Ki [15]?
**A.** 19.5 nM

**Q.** And the “fold lower Kl than ^8,37amylin” value [16]?
**A.** ~20 fold
